# In PMC8754651 (2021):
# B1: human TFIIH p62 PH domain (PH-D) (residues 1–108) (domain or fragment)
# chain: MATSSEEVLLIVKKVRQKKQDGALYLMAERIAWAPEGKDRFTISHMYADIKCQKISPEGKAKIQLQLVLHAGDTTNFHFSNESTAVKERDAVKDLLQQLLPKFKRKAN
# Legend:
# [1] = target: B1; assay: ITC
# [2] = target: human RPB6 (residues 1–127), full-length (human, UniProt P61218 1-127); assay: NMR
Kd [1] [µM],Kd [2] [µM],Binder
18.1,,MSDNEDNFDGDDADDVEEDEGLDD [human RPB6 (residues 1–24) F13A]
,4.13,B1
